Measurements published in publication PMC8278322 (Cancer research, 2020).

Molecular target: T1, Gal4-fused SMAD4 (UniProt Q13485 1-552)
T1 sequence (looked up): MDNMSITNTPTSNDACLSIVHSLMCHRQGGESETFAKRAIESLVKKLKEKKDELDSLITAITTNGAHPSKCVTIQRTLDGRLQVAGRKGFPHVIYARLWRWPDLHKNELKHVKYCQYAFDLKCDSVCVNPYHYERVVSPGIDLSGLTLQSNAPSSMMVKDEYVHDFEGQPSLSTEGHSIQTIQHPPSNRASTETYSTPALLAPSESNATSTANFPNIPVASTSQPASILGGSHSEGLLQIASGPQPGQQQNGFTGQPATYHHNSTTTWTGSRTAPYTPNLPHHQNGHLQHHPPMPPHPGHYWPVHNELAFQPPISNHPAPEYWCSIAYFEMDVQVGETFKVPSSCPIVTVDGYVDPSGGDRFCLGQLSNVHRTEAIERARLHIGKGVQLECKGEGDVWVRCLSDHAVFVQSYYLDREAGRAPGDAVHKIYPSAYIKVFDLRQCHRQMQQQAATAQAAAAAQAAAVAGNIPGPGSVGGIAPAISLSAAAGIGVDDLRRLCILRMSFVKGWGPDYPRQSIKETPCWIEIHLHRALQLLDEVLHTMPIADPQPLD
Assay: two-hybrid

B1: pVP16-fused FOXL2^C134W (natural protein, human, UniProt P58012 1-376, looked up)
chain: MMASYPEPEDAAGALLAPETGRTVKEPEGPPPSPGKGGGGGGGTAPEKPDPAQKPPYSYVALIAMAIRESAEKRLTLSGIYQYIIAKFPFYEKNKKGWQNSIRHNLSLNECFIKVPREGGGERKGNYWTLDPAWEDMFEKGNYRRRRRMKRPFRPPPAHFQPGKGLFGAGGAAGGCGVAGAGADGYGYLAPPKYLQSGFLNNSWPLPQPPSPMPYASCQMAAAAAAAAAAAAAAGPGSPGAAAVVKGLAGPAASYGPYTRVQSMALPPGVVNSYNGLGGPPAAPPPPPHPHPHPHAHHLHAAAAPPPAPPHHGAAAPPPGQLSPASPATAAPPAPAPTSAPGLQFACARQPELAMMHCSYWDHDSKTGALHSRLDL
Q: How did the “fold luciferase activity against pVP16-fused wildtype FOXL2” value turn out when B1 was run?
A: Its value is about 20 fold.
